Experiment [1] addresses T1, Peptide 1956 (N-terminally biotinylated Tat-COX-2 peptide).
T1 construct: also called PL of COX-2
The experiment in a line: ELISA (modified G assay): GST-PDZ captured by anti-GST antibody, biotinylated peptide, HRP-streptavidin. In general terms: In an ELISA, binding on a coated surface is turned into a signal by an enzyme label.

Experiment [2] concerns the target T1, Peptide 1956 (N-terminally biotinylated …). The experiment in a line: ELISA titration of the biotinylated peptide on captured GST-PDZ.

B1: GST-PDZ fusion protein, PDZ domain of MAST2 (Accession no. AB047005) (other)
chain: ISALGSMRPPIIIHRAGKKYGFTLRAIRVYMGDSDVYTVHHMVWHVEDGGPASEAGLRQGDLITHVNGEPVHGLVHTEVVELILKSGNKVAISTTPLENSS
notes: also called MAST2 PDZ domain
As to B1, the binding result in experiment [1] is “binds”.

B2: GST-PDZ fusion protein, PDZ domain of SHANK1 (GID 7025450) (other)
chain: ILKEKTVLLQKKDSEGFGFVLRGAKAQTPIEEFTPTPAFPALQYLESVDEGGVAWRAGLRMGDFLIEVNGQNVVKVGHRQVVNMIRQGGNTLMVKVVMVTRHPDMDEAVQNSS
notes: also called SHANK1 PDZ domain
In the case of B2, in experiment [2], the binding result is reported as “binds”.

B3: GST-PDZ fusion protein, PDZ domain of SHANK2 (GID 6049185) (other)
chain: ILEEKTVVLQKKDNEGFGFVLRGAKADTPIEEFTPTPAFPALQYLESVDEGGVAWQAGLRTGDFLIEVNNENVVKVGHRQVVNMIRQGGNHLVLKVVTVTRNLDPDDNSS
notes: also called SHANK2 PDZ domain
Consider B3, for which, in experiment [2], the binding result was “binds”.

B4: GST-PDZ fusion protein, PDZ domain of SHANK3 (XM_037493 GID: 51476100) (other)
chain: SDYVIDDKVAVLQKRDHEGFGFVLRGAKAETPIEEFTPTPAFPALQYLESVDVEGVAWRAGLRTGDFLIEVNGVNVVKVGHKQVVALIRQGGNRLVMKVVSVTRKPEEDG
notes: also called SHANK3 PDZ domain
As to B4, the binding result in experiment [2] is “binds”.

Values taken from US20070020717A1 (ARBOR VITA, published 2007).
